Data from the Human Domainome abundance scans (Beltran et al. 2025).
± gives the uncertainty stated by the source.

Assay: abundance fitness (aPCA) (normalised: wild type 0, dead -1); higher = more abundant; growth selection in yeast, the domain comes from the species named
Conditions: Homo sapiens

DnaJ homolog subfamily B member 1 A49W, P25685
abundance fitness: -0.307 ± 0.088

DnaJ homolog subfamily B member 1 A49Y, P25685
abundance fitness: -0.277 ± 0.18

DnaJ homolog subfamily B member 1 A51C, P25685
abundance fitness: -0.755 ± 0.18

DnaJ homolog subfamily B member 1 A51D, P25685
abundance fitness: -1.19 ± 0.16

DnaJ homolog subfamily B member 1 A51E, P25685
abundance fitness: -0.718 ± 0.098

DnaJ homolog subfamily B member 1 A51F, P25685
abundance fitness: -1.49 ± 0.19

DnaJ homolog subfamily B member 1 A51G, P25685
abundance fitness: -0.628 ± 0.061

DnaJ homolog subfamily B member 1 A51I, P25685
abundance fitness: -0.977 ± 0.17

DnaJ homolog subfamily B member 1 A51K, P25685
abundance fitness: -0.885 ± 0.15

DnaJ homolog subfamily B member 1 A51L, P25685
abundance fitness: -1.06 ± 0.082

DnaJ homolog subfamily B member 1 A51M, P25685
abundance fitness: -1.1 ± 0.085

DnaJ homolog subfamily B member 1 A51P, P25685
abundance fitness: -0.488 ± 0.098

DnaJ homolog subfamily B member 1 A51Q, P25685
abundance fitness: -0.755 ± 0.086

DnaJ homolog subfamily B member 1 A51R, P25685
abundance fitness: -0.84 ± 0.067

DnaJ homolog subfamily B member 1 A51S, P25685
abundance fitness: -0.406 ± 0.08

DnaJ homolog subfamily B member 1 A51T, P25685
abundance fitness: -0.815 ± 0.071

DnaJ homolog subfamily B member 1 A51V, P25685
abundance fitness: -0.915 ± 0.065

DnaJ homolog subfamily B member 1 A51W, P25685
abundance fitness: -1.08 ± 0.096

DnaJ homolog subfamily B member 1 A51Y, P25685
abundance fitness: -0.576 ± 0.39

DnaJ homolog subfamily B member 1 D4E, P25685
abundance fitness: -0.186 ± 0.19

DnaJ homolog subfamily B member 1 D4F, P25685
abundance fitness: -0.608 ± 0.48

DnaJ homolog subfamily B member 1 D4G, P25685
abundance fitness: -0.398 ± 0.17

DnaJ homolog subfamily B member 1 D4H, P25685
abundance fitness: -0.236 ± 0.44

DnaJ homolog subfamily B member 1 D4L, P25685
abundance fitness: -0.341 ± 0.23

DnaJ homolog subfamily B member 1 D4M, P25685
abundance fitness: -0.196 ± 0.15

DnaJ homolog subfamily B member 1 D4P, P25685
abundance fitness: -0.712 ± 0.16

DnaJ homolog subfamily B member 1 D4R, P25685
abundance fitness: -0.151 ± 0.17

DnaJ homolog subfamily B member 1 D4S, P25685
abundance fitness: -0.193 ± 0.19

DnaJ homolog subfamily B member 1 D4T, P25685
abundance fitness: -0.207 ± 0.18

DnaJ homolog subfamily B member 1 D4V, P25685
abundance fitness: -0.433 ± 0.13

DnaJ homolog subfamily B member 1 D4Y, P25685
abundance fitness: -0.256 ± 0.19

DnaJ homolog subfamily B member 1 D17A, P25685
abundance fitness: -0.072 ± 0.096

DnaJ homolog subfamily B member 1 D17C, P25685
abundance fitness: 0.031 ± 0.23

DnaJ homolog subfamily B member 1 D17E, P25685
abundance fitness: -0.095 ± 0.1

DnaJ homolog subfamily B member 1 D17F, P25685
abundance fitness: -0.183 ± 0.12

DnaJ homolog subfamily B member 1 D17G, P25685
abundance fitness: -0.199 ± 0.087

DnaJ homolog subfamily B member 1 D17H, P25685
abundance fitness: -0.182 ± 0.13

DnaJ homolog subfamily B member 1 D17I, P25685
abundance fitness: -0.029 ± 0.076

DnaJ homolog subfamily B member 1 D17K, P25685
abundance fitness: -0.287 ± 0.14

DnaJ homolog subfamily B member 1 D17L, P25685
abundance fitness: 0.038 ± 0.072

DnaJ homolog subfamily B member 1 D17M, P25685
abundance fitness: -0.06 ± 0.089

DnaJ homolog subfamily B member 1 D17N, P25685
abundance fitness: -0.104 ± 0.12

DnaJ homolog subfamily B member 1 D17P, P25685
abundance fitness: -0.18 ± 0.071

DnaJ homolog subfamily B member 1 D17R, P25685
abundance fitness: -0.211 ± 0.084

DnaJ homolog subfamily B member 1 D17S, P25685
abundance fitness: -0.094 ± 0.073

DnaJ homolog subfamily B member 1 D17T, P25685
abundance fitness: -0.161 ± 0.11

DnaJ homolog subfamily B member 1 D17V, P25685
abundance fitness: -0.059 ± 0.053

DnaJ homolog subfamily B member 1 D17W, P25685
abundance fitness: -0.142 ± 0.15

DnaJ homolog subfamily B member 1 D17Y, P25685
abundance fitness: -0.09 ± 0.078

DnaJ homolog subfamily B member 1 D34A, P25685
abundance fitness: 0.058 ± 0.14

DnaJ homolog subfamily B member 1 D34C, P25685
abundance fitness: 0.009 ± 0.14

DnaJ homolog subfamily B member 1 D34E, P25685
abundance fitness: 0.188 ± 0.33

DnaJ homolog subfamily B member 1 D34F, P25685
abundance fitness: -0.249 ± 0.1

DnaJ homolog subfamily B member 1 D34G, P25685
abundance fitness: -0.012 ± 0.11

DnaJ homolog subfamily B member 1 D34H, P25685
abundance fitness: -0.008 ± 0.11

DnaJ homolog subfamily B member 1 D34I, P25685
abundance fitness: -0.233 ± 0.1

DnaJ homolog subfamily B member 1 D34K, P25685
abundance fitness: -0.046 ± 0.074

DnaJ homolog subfamily B member 1 D34L, P25685
abundance fitness: -0.042 ± 0.066

DnaJ homolog subfamily B member 1 D34M, P25685
abundance fitness: -0.053 ± 0.1

DnaJ homolog subfamily B member 1 D34N, P25685
abundance fitness: -0.039 ± 0.17

DnaJ homolog subfamily B member 1 D34P, P25685
abundance fitness: -0.285 ± 0.094

DnaJ homolog subfamily B member 1 D34Q, P25685
abundance fitness: 0.054 ± 0.11

DnaJ homolog subfamily B member 1 D34R, P25685
abundance fitness: -0.242 ± 0.089

DnaJ homolog subfamily B member 1 D34S, P25685
abundance fitness: 0.075 ± 0.061

DnaJ homolog subfamily B member 1 D34V, P25685
abundance fitness: -0.022 ± 0.081

DnaJ homolog subfamily B member 1 D34W, P25685
abundance fitness: -0.02 ± 0.15

DnaJ homolog subfamily B member 1 D34Y, P25685
abundance fitness: -0.135 ± 0.081

DnaJ homolog subfamily B member 1 D53A, P25685
abundance fitness: -0.036 ± 0.088

DnaJ homolog subfamily B member 1 D53C, P25685
abundance fitness: -0.093 ± 0.37

DnaJ homolog subfamily B member 1 D53E, P25685
abundance fitness: -0.398 ± 0.12

DnaJ homolog subfamily B member 1 D53F, P25685
abundance fitness: -0.249 ± 0.19

DnaJ homolog subfamily B member 1 D53G, P25685
abundance fitness: -0.098 ± 0.15

DnaJ homolog subfamily B member 1 D53H, P25685
abundance fitness: -0.262 ± 0.1

DnaJ homolog subfamily B member 1 D53I, P25685
abundance fitness: -0.224 ± 0.11

DnaJ homolog subfamily B member 1 D53K, P25685
abundance fitness: -0.067 ± 0.11

DnaJ homolog subfamily B member 1 D53L, P25685
abundance fitness: -0.058 ± 0.066

DnaJ homolog subfamily B member 1 D53M, P25685
abundance fitness: -0.124 ± 0.09

DnaJ homolog subfamily B member 1 D53N, P25685
abundance fitness: 0.035 ± 0.12

DnaJ homolog subfamily B member 1 D53P, P25685
abundance fitness: -0.709 ± 0.079

DnaJ homolog subfamily B member 1 D53Q, P25685
abundance fitness: -0.279 ± 0.097

DnaJ homolog subfamily B member 1 D53R, P25685
abundance fitness: -0.132 ± 0.14

DnaJ homolog subfamily B member 1 D53T, P25685
abundance fitness: 0.032 ± 0.086

DnaJ homolog subfamily B member 1 D53V, P25685
abundance fitness: -0.013 ± 0.093

DnaJ homolog subfamily B member 1 D53W, P25685
abundance fitness: -0.405 ± 0.12

DnaJ homolog subfamily B member 1 D53Y, P25685
abundance fitness: -0.356 ± 0.077

DnaJ homolog subfamily B member 1 D57A, P25685
abundance fitness: -0.269 ± 0.088

DnaJ homolog subfamily B member 1 D57C, P25685
abundance fitness: -0.09 ± 0.098

DnaJ homolog subfamily B member 1 D57E, P25685
abundance fitness: -0.269 ± 0.14

DnaJ homolog subfamily B member 1 D57F, P25685
abundance fitness: -0.668 ± 0.17

DnaJ homolog subfamily B member 1 D57G, P25685
abundance fitness: -0.298 ± 0.11

DnaJ homolog subfamily B member 1 D57I, P25685
abundance fitness: -0.637 ± 0.22

DnaJ homolog subfamily B member 1 D57K, P25685
abundance fitness: -0.123 ± 0.13

DnaJ homolog subfamily B member 1 D57L, P25685
abundance fitness: -0.53 ± 0.061

DnaJ homolog subfamily B member 1 D57M, P25685
abundance fitness: -0.366 ± 0.084

DnaJ homolog subfamily B member 1 D57N, P25685
abundance fitness: -0.071 ± 0.29

DnaJ homolog subfamily B member 1 D57P, P25685
abundance fitness: -0.715 ± 0.19

DnaJ homolog subfamily B member 1 D57R, P25685
abundance fitness: -0.416 ± 0.072

DnaJ homolog subfamily B member 1 D57S, P25685
abundance fitness: -0.097 ± 0.076

DnaJ homolog subfamily B member 1 D57T, P25685
abundance fitness: -0.072 ± 0.089

DnaJ homolog subfamily B member 1 D57V, P25685
abundance fitness: -0.317 ± 0.098

DnaJ homolog subfamily B member 1 D57W, P25685
abundance fitness: -0.812 ± 0.2

DnaJ homolog subfamily B member 1 D57Y, P25685
abundance fitness: -0.45 ± 0.11

DnaJ homolog subfamily B member 1 D65A, P25685
abundance fitness: -0.123 ± 0.078
